B1: HDV Ribozyme (parent)
chain: GGCCGGCAUGGUCCCAGCCUCCUCGCUGGCGCCGGCUGGGCAACAUUCCGAGGGGACCGUCCCCUCGGUAAUGGCGAAUGGGACCCA

Variants of: B1
Assay: self-cleavage, relative activity (ratio to wild type); higher = more cleavage; co-transcriptional

Row | Variant | self-cleavage
1 | GGCCGGCAUGCUCCCAGCCUCCUCGCUGGCGCCGGCUGGGCAACAUUCCGAGGGGACCGUCCCCUCGGUAAUGGCGAAUGGGACCUA [G11C C86U] | 0.38
2 | GGCCGGCAUGUUCCCAGCCUCCUCGCUGGCGCCGGCUGGGCAACAUUUCGAGGGGACCGUCCCCUCGGUAAUGGCGAAUGGGACCCA [G11U C48U] | 0.369
3 | GGCCGGCAUGUUCCCAGCGUCCUCGCUGGCGCCGGCUGGGCAACAUUCCGAGGGGACCGUCCCCUCGGUAAUGGCGAAUGGGACCCA [G11U C19G] | 0.058
4 | GGCCGGCAUGUUCCCAGCAUCCUCGCUGGCGCCGGCUGGGCAACAUUCCGAGGGGACCGUCCCCUCGGUAAUGGCGAAUGGGACCCA [G11U C19A] | 0.0382
5 | GGCCGGCAUGUUCCCAGCCUCCUGGCUGGCGCCGGCUGGGCAACAUUCCGAGGGGACCGUCCCCUCGGUAAUGGCGAAUGGGACCCA [G11U C24G] | 0.0966
6 | GGCCGGCAUGUUCCCAGCCUCCUUGCUGGCGCCGGCUGGGCAACAUUCCGAGGGGACCGUCCCCUCGGUAAUGGCGAAUGGGACCCA [G11U C24U] | 0.111
7 | GGCCGGCAUGUUCCCAGCCUCCUCGCUGGCGCCGGCUGGGCUACAUUCCGAGGGGACCGUCCCCUCGGUAAUGGCGAAUGGGACCCA [G11U A42U] | 0.0852
8 | GGCCGGCAUGUUCCCAGCCUCCUCGCUGGUGCCGGCUGGGCAACAUUCCGAGGGGACCGUCCCCUCGGUAAUGGCGAAUGGGACCCA [G11U C30U] | 0.0923
9 | GGCCGGCAUGCUCCCAGCCUCCUCGCUGGCGCCGGCUGGGCAACAUUCCGAGGGGACCGUCCCCUCGGUAAUGGCGAAUGGAACCCA [G11C G82A] | 0.262
10 | GGCCGGCAUGCUCCCAGCCUCCUCGCUGGCGCCGGCUGGGCAACAUUCCGAGGGGACGGUCCCCUCGGUAAUGGCGAAUGGGACCCA [G11C C58G] | 0.369
11 | GGCCGGCAUGUUCCCAGCCUCCUCGCUGGCGCCGGCUGGGCAACAUUCCGAGGGGUCCGUCCCCUCGGUAAUGGCGAAUGGGACCCA [G11U A56U] | 0.391
12 | GGCCGGCAUGUUCCCAGCCUCCUCGCUGGCGCCGGCUGGGCAACAUUCCGAGGGGGCCGUCCCCUCGGUAAUGGCGAAUGGGACCCA [G11U A56G] | 0.378
13 | GGCCGGCAUGCUCCCAGCCCCCUCGCUGGCGCCGGCUGGGCAACAUUCCGAGGGGACCGUCCCCUCGGUAAUGGCGAAUGGGACCCA [G11C U20C] | 0.0437
14 | GGCCGGCAUGCUCCCAGCCUCCUCGCUGGCGCCGUCUGGGCAACAUUCCGAGGGGACCGUCCCCUCGGUAAUGGCGAAUGGGACCCA [G11C G35U] | 0.271
15 | GGCCGGCAUGCUCCCAGCCUCCUCGCUGGCGCCGGCUGGGCAACAUUCCGAGGGGACCGUCCCCUCGGUAAUGGCGAAUGCGACCCA [G11C G81C] | 0.0519
16 | GGCCGGCAUGUUCCCAGUCUCCUCGCUGGCGCCGGCUGGGCAACAUUCCGAGGGGACCGUCCCCUCGGUAAUGGCGAAUGGGACCCA [G11U C18U] | 0.0504

Row | Variant | self-cleavage
17 | GGCCGGCAUGUUCCCAGACUCCUCGCUGGCGCCGGCUGGGCAACAUUCCGAGGGGACCGUCCCCUCGGUAAUGGCGAAUGGGACCCA [G11U C18A] | 0.0674
18 | GGCCGGCAUGUUCCCAGCCUCCUCGGUGGCGCCGGCUGGGCAACAUUCCGAGGGGACCGUCCCCUCGGUAAUGGCGAAUGGGACCCA [G11U C26G] | 0.527
19 | GGCCGGCAUGUUCCCUGCCUCCUCGCUGGCGCCGGCUGGGCAACAUUCCGAGGGGACCGUCCCCUCGGUAAUGGCGAAUGGGACCCA [G11U A16U] | 0.673
20 | GGCCGGCAUGUUCCCGGCCUCCUCGCUGGCGCCGGCUGGGCAACAUUCCGAGGGGACCGUCCCCUCGGUAAUGGCGAAUGGGACCCA [G11U A16G] | 0.309
21 | GGCCGGCAUGCUCCCAGCCUCCUCGCGGGCGCCGGCUGGGCAACAUUCCGAGGGGACCGUCCCCUCGGUAAUGGCGAAUGGGACCCA [G11C U27G] | 0.356
22 | GGCCGGCAUGCUCCCAGCCUCCUCGCUGGCGCCGGCUGGGCAACAUUCCGAGGGAACCGUCCCCUCGGUAAUGGCGAAUGGGACCCA [G11C G55A] | 0.407
23 | GGCCGGCAUGCUCCCAGCCUCCUCGUUGGCGCCGGCUGGGCAACAUUCCGAGGGGACCGUCCCCUCGGUAAUGGCGAAUGGGACCCA [G11C C26U] | 0.895
24 | GGCCGGCAUGUUCCCAGCCUCCUCGCUGGCGCCGGAUGGGCAACAUUCCGAGGGGACCGUCCCCUCGGUAAUGGCGAAUGGGACCCA [G11U C36A] | 0.0755
25 | GGCCGGCAUGCUCCCAGCCUCCUCGCUGGCGCCGGCUGGGCAACAUUCCGAGGUGACCGUCCCCUCGGUAAUGGCGAAUGGGACCCA [G11C G54U] | 0.289
26 | GGCCGGCAUGCUCCCAGCCUCCUCGCUGUCGCCGGCUGGGCAACAUUCCGAGGGGACCGUCCCCUCGGUAAUGGCGAAUGGGACCCA [G11C G29U] | 0.0225
27 | GGCCGGCAUGCUCCCAGCCUCCUCGCUGGCGCCGGCUGGGAAACAUUCCGAGGGGACCGUCCCCUCGGUAAUGGCGAAUGGGACCCA [G11C C41A] | 0.185
28 | GGCCGGCAUGCUCCCAGCCUCCUCGCUGGCGCCGGCUGGGCAACAGUCCGAGGGGACCGUCCCCUCGGUAAUGGCGAAUGGGACCCA [G11C U46G] | 0.133
29 | GGCCGGCAUGUUCCCAGCCUCCUCGCUGGCGCCGGCUGGGCAACAUUCCGAGGGGAACGUCCCCUCGGUAAUGGCGAAUGGGACCCA [G11U C57A] | 0.447
30 | GGCCGGCAUGCUCCCAGCCUCCUCGCUGGAGCCGGCUGGGCAACAUUCCGAGGGGACCGUCCCCUCGGUAAUGGCGAAUGGGACCCA [G11C C30A] | 0.0804
31 | GGCCGGCAUGCUCCCAGCCUCCUCGCUGGCGCCGGCUGGGCAACAUUCCGAGGGGACCGUCCCCUCGGUAAUGGCGAAUCGGACCCA [G11C G80C] | 0.295
32 | GGCCGGCAUGCUCCCAGCCUCCUCGCUGGCGCCGGCUGGGCAACAUUCCGAGGGGACCGUCCCCUCGGUAAUGGCGAAUUGGACCCA [G11C G80U] | 0.0621

Reference: the RNAGym collection of RNA variant scans (doi:10.7554/elife.80360)
